This assay has as its target human IL-17A (human) (UniProt Q16552). Put plainly: cell-based or functional assay.

Sequence of human IL-17A (human) (Q16552 20-155 limits assumed): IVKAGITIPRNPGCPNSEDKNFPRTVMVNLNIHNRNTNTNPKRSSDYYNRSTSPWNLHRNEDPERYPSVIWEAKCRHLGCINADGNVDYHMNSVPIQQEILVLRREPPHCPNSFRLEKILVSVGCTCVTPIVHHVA

“BCD-085 anti-IL-17A monospecific antibody (BIOCAD)” gave an IC50, IL-17A-dependent IL-6 production, HT1080 cells of 9.2 ng/mL and an IC50, dual IL-17A/TNFα-dependent IL-6 production, HT1080 cells of 0.025 nM.
